The values below are quoted from earlier work in paper PMC6716794.

One data set addresses thrombin ABE I (UniProt P00734). Nature of the data set: NMR.
In another data set the target is thrombin ABE II (UniProt P00734).
For a further data set, the target named is Thrombin (Homo sapiens) (UniProt P00734).

Chain of PAR3GEL (O00254 39-374): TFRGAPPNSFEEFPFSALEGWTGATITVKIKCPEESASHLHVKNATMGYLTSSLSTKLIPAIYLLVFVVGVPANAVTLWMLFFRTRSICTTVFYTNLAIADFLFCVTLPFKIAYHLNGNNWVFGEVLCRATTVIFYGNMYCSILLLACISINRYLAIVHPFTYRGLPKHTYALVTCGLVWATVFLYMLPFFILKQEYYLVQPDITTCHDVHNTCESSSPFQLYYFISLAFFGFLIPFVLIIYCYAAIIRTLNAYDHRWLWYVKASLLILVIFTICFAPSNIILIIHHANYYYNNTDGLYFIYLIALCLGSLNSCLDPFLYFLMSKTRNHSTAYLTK

Turning to PAR3GEL (from UniProt O00254), the Kd with thrombin ABE I was 47 µM.
For GpIbα 269-286 (from UniProt P07359), the Kd with thrombin ABE II and in the data set with Thrombin (Homo sapiens) was 5.9 nM throughout.

A word on the Kd: it is the concentration at which binding is half-saturated.
